Assay [1] addresses gp120YU2 D474A (HIV-1 strain YU2). The assay is described as follows: SPR.
In assay [2] the target is gp120YU2 E102A (HIV-1 strain YU2). The assay is described as follows: SPR. A general note: In SPR one partner is held on a chip, and binding of the other changes the refractive index at the surface.
In assay [3] the target is gp120YU2 K97A (HIV-1 strain YU2). The assay is described as follows: SPR.
Assay [4] concerns the target gp120YU2 T257A (HIV-1 strain YU2). The assay is described as follows: SPR.
In the next assay the test system is CCR5-utilizing virus. The following applies: ref [4]; cited from earlier work.

In general, Kd refers to the concentration at which binding is half-saturated. In the case of “Hexahis-tagged 4-domain soluble CD4 (receptor)”, the Kd is 5 nM in assay [1], 3 nM in assay [2], 10 nM in assay [3] and 5 nM in assay [4]. Moreover, the RU bound at the end of association (500 nM CD4) in assay [1] worked out at 47 RU; in assay [4], 23 RU.

On to maraviroc, for which the “antiviral effectiveness by tropism” value in the assay with CCR5-utilizing virus is listed as “only effective against solely CCR5-utilizing virus”.

Source of the values: publication PMC3731144 (Proteins, 2012).
